Molecular target: T1, biotinylated anti-ABD goat antibody
T1 construct: also called Anti-ABD surface
Experiment: SPR (Biacore 2000), periplasm diluted 15x over anti-ABD surface
Excerpt: SPR analysis of periplasmic samples: A selection of Aβ peptide binding polypeptides was subjected to an analysis of the response against biotinylated hAβ₁₋₄₀ using a Biacore 2000 instrument (GE Healthcare). Biotinylated anti-ABD goat antibody (produced in-house) and N-terminally biotinylated hAβ₁₋₄₀ (AnaSpec cat. no. AS-24648) were immobilized in separate flow cells on a streptavidin coated chip (Biacore Sensor Chip SA, cat. no. BR100032) using HBS-EP as running buffer (0.01 M HEPES pH 7.4, 0.15 M NaCl, 3 mM EDTA, 0.005% v/v Surfactant P20, GE Healthcare, cat. no. BR100188). The ligand immobilization levels on the surfaces were approximately 2000 RU for the anti-ABD antibody and 225 RU for hAβ₁₋₄₀. One flow cell surface on the chip was used as blank during analyte injections. HBS-EP was used as running buffer and the flow rate was 25 μl/min. The analytes, i.e. periplasmic preparations of Aβ peptide binding polypeptides as described above, were each diluted 15× in HBS-EP buffer and injected for 10 min, followed by dissociation in running buffer for 5 min. After dissociation, the surfaces were regenerated with 2 pulses of 10 mM glycin pH 2.0. […]
SPR analysis of periplasmic samples: The interactions of a subset of Z variants with anti-ABD goat antibody and hAβ₁₋₄₀ were analyzed in a Biacore instrument by injecting dilutions of periplasmic samples.

- Response RU: 19.8 RU
B1: ABD (albumin binding domain GA3 from streptococcal Protein G), periplasm control (other)
chain: LAEAKVLANRELDKYGVSDYYKNLINNAKTVEGVKALIDEILAALP
notes: periplasm containing ABD only; also called negative control
